B1: Ribonuclease, P00648 (parent)
chain: MMKMEGIALKKRLSWISVCLLVLVSAAGMLFSTAAKTETSSHKAHTEAQVINTFDGVADYLQTYHKLPDNYITKSEAQALGWVASKGNLADVAPGKSIGGDIFSNREGKLPGKSGRTWREADINYTSGFRNSDRILYSSDWLIYKTTDHYQTFTKIR

Variants of: B1
Conditions: Bacillus amyloliquefaciens; pH 6.3; 25 °C; Urea; Fluorescence; MES 1.00 M; NaCl 613 mM; reversible: yes; structure 1BNI; whole UniProt chain shown

Variant	ddG of mutation (higher = less stable) [kcal/mol]	denaturant m value [kcal/mol/M]	denaturant midpoint (higher = more stable) [M]	unfolding free energy [kcal/mol]
Y64F	0.58	2.16	4.43	9.57
Y60F	0.63	2.17	4.38	9.52
Y60A	3.69	2.26	2.86	6.46
Y60A Y64A	4.76	2.22	2.43	5.39
Y60F Y64F	1.23	2.08	4.29	8.92
